# B1: CtBP-interacting protein (natural protein, human (endogenous in U87), UniProt Q99708 1-897, looked up)
# chain: MNISGSSCGSPNSADTSSDFKDLWTKLKECHDREVQGLQVKVTKLKQERILDAQRLEEFFTKNQQLREQQKVLHETIKVLEDRLRAGLCDRCAVTEEHMRKKQQEFENIRQQNLKLITELMNERNTLQEENKKLSEQLQQKIENDQQHQAAELECEEDVIPDSPITAFSFSGVNRLRRKENPHVRYIEQTHTKLEHSVCANEMRKVSKSSTHPQHNPNENEILVADTYDQSQSPMAKAHGTSSYTPDKSSFNLATVVAETLGLGVQEESETQGPMSPLGDELYHCLEGNHKKQPFEESTRNTEDSLRFSDSTSKTPPQEELPTRVSSPVFGATSSIKSGLDLNTSLSPSLLQPGKKKHLKTLPFSNTCISRLEKTRSKSEDSALFTHHSLGSEVNKIIIQSSNKQILINKNISESLGEQNRTEYGKDSNTDKHLEPLKSLGGRTSKRKKTEEESEHEVSCPQASFDKENAFPFPMDNQFSMNGDCVMDKPLDLSDRFSAIQRQEKSQGSETSKNKFRQVTLYEALKTIPKGFSSSRKASDGNCTLPKDSPGEPCSQECIILQPLNKCSPDNKPSLQIKEENAVFKIPLRPRESLETENVLDDIKSAGSHEPIKIQTRSDHGGCELASVLQLNPCRTGKIKSLQNNQDVSFENIQWSIDPGADLSQYKMDVTVIDTKDGSQSKLGGETVDMDCTLVSETVLLKMKKQEQKGEKSSNEERKMNDSLEDMFDRTTHEEYESCLADSFSQAADEEEELSTATKKLHTHGDKQDKVKQKAFVEPYFKGDERETSLQNFPHIEVVRKKEERRKLLGHTCKECEIYYADMPAEEREKKLASCSRHRFRYIPPNTPENFWEVGFPSTQTCMERGYIKEDLDPCPRPKRRQPYNAIFSPKGKEQKT
# notes: also called CtIP; source: endogenous, U87 lysate
# Molecular target: T1, pyruvate kinase M2 (human (endogenous in U87), UniProt P14618 1-531)
# T1 construct: pyruvate kinase M2 (PKM2), endogenous in the human glioblastoma cell line U87; In irradiated cells part of the nuclear PKM2 is phosphorylated at T328 by ATM; The lysates hold a mixture; also called PKM2; source: endogenous, U87 lysate
# Assay: not stated; association of PKM2 and CtIP after irradiation, with the ATM inhibitor KU55933 against without; legend of Fig. S7a not shown
# Conditions: partners not purified
# T1 sequence (P14618 whole entry): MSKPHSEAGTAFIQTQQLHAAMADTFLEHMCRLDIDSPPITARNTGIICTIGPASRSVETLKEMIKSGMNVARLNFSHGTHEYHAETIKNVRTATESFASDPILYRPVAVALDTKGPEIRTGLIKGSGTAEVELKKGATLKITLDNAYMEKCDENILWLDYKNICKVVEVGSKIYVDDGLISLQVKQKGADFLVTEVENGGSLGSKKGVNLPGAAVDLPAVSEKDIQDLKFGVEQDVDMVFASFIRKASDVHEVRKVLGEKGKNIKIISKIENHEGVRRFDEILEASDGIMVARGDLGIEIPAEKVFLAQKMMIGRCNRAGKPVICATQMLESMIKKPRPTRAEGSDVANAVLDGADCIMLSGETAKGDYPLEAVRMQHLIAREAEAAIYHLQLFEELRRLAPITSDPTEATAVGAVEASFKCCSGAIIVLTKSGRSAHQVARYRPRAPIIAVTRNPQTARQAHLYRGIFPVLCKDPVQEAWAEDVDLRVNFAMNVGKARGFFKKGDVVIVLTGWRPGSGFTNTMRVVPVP
binder,measurement,value
B1,fold reduction of the association by KU55933 after irradiation,> 2.5 fold
